Results published in patent US20200277359A1 (published 2020).

Tests used:
Recombinant CHIKV p62-E1 = molecular target: T1, Recombinant CHIKV p62-E1 (Chikungunya virus); experiment: SPR (Biacore T100), IgG captured on anti-human IgG, p62-E1 injected
T1 construct: also called soluble CHIKV p62-E1; monomeric E1 protein

[1] = molecular target: T2, Recombinant CHIKV E2 ectodomain protein (corresponding to the CHIKV-LR2006 strain) (Chikungunya virus strain LR2006); experiment: ELISA on coated E2 ectodomain, mAb at 10 µg/mL
T2 construct: extracellular domain; also called CHIKV-LR2006 E2 ectodomain; purified E2 protein

Row | Binder | Kd (Recombinant CHIKV p62-E1) | koff (Recombinant CHIKV p62-E1) | kon (Recombinant CHIKV p62-E1) | t1/2 (Recombinant CHIKV p62-E1) | OD450 [1]
1 | human mAb 5O14 (antibody, V domains shown) VH: QVQLVQSGGRVVQAGRSLRLSCAASGFTFSMYGVHWVRQAPGKGLEWVAVIWNDGSKEYYGDSVKGRFTISRDNSRNTLYLQMNSLRVDDTAVYFCARDGIPDPERGDYGGLDYWGQGTLVTVSS VL: QTVVTQFPSSPFASVGDGVTITCRARQSISSYVNWYQQKPGKAPKLLIYATSSLQSGVPSRFSGSGYGTDFTLTISGLQPEDFATYYCQQSYSFPRTFGQGTKVEIK | 1.15 nM | 0.000911 s⁻¹ | 790000 M⁻¹ s⁻¹ | 13 min | > 1 od
2 | human mAb 2C2 (antibody, V domains shown) VH: QVQLVQSGGGLVQPGRSLTLSCAASGFTFDVYAMHWVRQAPGKGLEWVAGISWNSGSVGYADSMKGRFTISRDNAKNSLYLQINSLRAEDTALYYCAKAFWFGELSGYGMDVWGQGTLVTVSS VL: QAVVTQPPSASGFPGQSVTISCTGTSSDVGSYNYVSWYQQHPGKAPKLIIYAVTRRPSGVPERFSGSKSGNTASLTVSGLQAEDEADYYCTSYAGNNKDVFGTGTKVTVL | – | – | – | 19 min | –
3 | human mAb 4J21 (antibody, V domains shown) VH: QVQLVQSGSELKKPGASVKVSCKASGYSFTSYSINWVRQAPGQGPEWMGWIDTNTGNPTYAQDFAGRFVFSLDTSVTTAYLQISSLKAGDTAVYYCATYYVDLWGSYRQDYYGMDVWGHGTLVTVSS VL: QSVVTQPPSVSGTPGQGVTISCSGGSSNIGSNPVNWYQMVPGTAPKLLLYTNNQRPSGVPDRFSGSKSGTSASLAINGLQSEDEADYYCAVWDDSLSGRWVFGGGTKLTVL | – | – | – | 186 min | 0.5 to 0.99 od
4 | human mAb 2B4 (antibody, V domains shown) VH: QVQLVQSGSELKKPGASVKVSCKASGYSFTSYSINWVRQAPGQGPEWMGWIDTNTGNPTYAQDFAGRFVFSLDTSVTTAYLQISSLKAGDTAVYYCATYYVDLWGSYRQDYYGMDVWGH VL: QSVLTQPPSASGTPGQRVTISCSGGSSNIGSNPVNWYQMVPGTAPKLLLYTNNQRPSGVPDRFSGSKSGTSASLAINGLQSEDEADYYCAVWDDSLSGRWVFGGGTKVTVL | – | – | – | – | 0.5 to 0.99 od
